Measurements as given in the supplement of paper PMC9112550, “Optimization of the antimicrobial peptide Bac7 by deep mutational scanning” (BMC Biology, 2022).

tested on: Escherichia coli TOP10; test: shrunken log2 fold change of peptide-encoding DNA abundance (4.5 h post-induction vs induction); higher = less antimicrobial activity (less host growth inhibition); details: time post-induction: 4.5 h; library: site-saturation at positions 5, 18, 19, 20
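Also: peptides expressed intracellularly from a pBAD plasmid library in pooled LB shake-flask culture, induced with 0.3% L-arabinose, DNA abundance read by NGS, three biological replicates, DESeq2 with apeglm shrinkage.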

Sequence | shrunken log2 fold change
RRIRSRPPRLPRPRPRPYIAPRP | -0.917
RRIRIRPPRLPRPRPRPDVRPRP | 0.0768
RRIRGRPPRLPRPRPRPCLWPRP | 0.426
RRIRLRPPRLPRPRPRPVTRPRP | 0.0329
RRIRHRPPRLPRPRPRPPHRPRP | 0.198
RRIRDRPPRLPRPRPRPITAPRP | -0.283
RRIRPRPPRLPRPRPRPSAYPRP | -0.386
RRIRIRPPRLPRPRPRPHMDPRP | -0.103
RRIRNRPPRLPRPRPRPQQLPRP | -0.0538
RRIRMRPPRLPRPRPRPHFKPRP | -0.0841
RRIRVRPPRLPRPRPRPTPGPRP | 0.258
RRIRMRPPRLPRPRPRPVHWPRP | 0.155
RRIRYRPPRLPRPRPRPSELPRP | -0.0343
RRIRERPPRLPRPRPRPAHDPRP | -0.181
RRIRVRPPRLPRPRPRPFITPRP | -0.334
RRIRARPPRLPRPRPRPHEDPRP | 0.627
RRIRQRPPRLPRPRPRPRNEPRP | -0.199
RRIRGRPPRLPRPRPRPAAFPRP | 0.724
RRIRVRPPRLPRPRPRPRIGPRP | 0.131
RRIRDRPPRLPRPRPRPCTGPRP | -0.0116
RRIRYRPPRLPRPRPRPNMAPRP | -0.00884
RRIRQRPPRLPRPRPRPGECPRP | -0.0823

Sequence | shrunken log2 fold change
RRIRIRPPRLPRPRPRPCFAPRP | -0.1
RRIRWRPPRLPRPRPRPFSTPRP | -0.14
RRIRHRPPRLPRPRPRPDVSPRP | -0.198
RRIRYRPPRLPRPRPRPVQWPRP | -0.126
RRIRTRPPRLPRPRPRPVLHPRP | -0.139
RRIRARPPRLPRPRPRPWASPRP | -0.145
RRIRIRPPRLPRPRPRPANAPRP | -0.319
RRIRRRPPRLPRPRPRPCVPPRP | -0.149
RRIRLRPPRLPRPRPRPEFYPRP | 0.0488
RRIRPRPPRLPRPRPRPCVMPRP | -0.162
RRIRHRPPRLPRPRPRPHTPPRP | -0.147
RRIRDRPPRLPRPRPRPVEPPRP | 0.0157
RRIRWRPPRLPRPRPRPPKLPRP | 0.152
RRIRPRPPRLPRPRPRPCSDPRP | -0.131
RRIRTRPPRLPRPRPRPRLPPRP | 0.119
RRIRFRPPRLPRPRPRPVKHPRP | -0.222
RRIRSRPPRLPRPRPRPHEMPRP | 0.0637
RRIRVRPPRLPRPRPRPCPSPRP | -0.0233
RRIRYRPPRLPRPRPRPNARPRP | -0.0675
RRIRARPPRLPRPRPRPDVHPRP | 0.196
RRIRLRPPRLPRPRPRPLDCPRP | 0.0132
RRIRARPPRLPRPRPRPNHPPRP | -0.0147

Sequence | shrunken log2 fold change
RRIRYRPPRLPRPRPRPFSRPRP | -0.625
RRIRTRPPRLPRPRPRPLSCPRP | -0.000228
RRIRCRPPRLPRPRPRPWLMPRP | -0.159
RRIRHRPPRLPRPRPRPPPYPRP | 0.00808
RRIRHRPPRLPRPRPRPEHDPRP | -0.051
RRIRFRPPRLPRPRPRPKAFPRP | 0.133
RRIRYRPPRLPRPRPRPFNMPRP | -0.202
RRIRSRPPRLPRPRPRPDHKPRP | -0.18
RRIRCRPPRLPRPRPRPLYIPRP | -0.882
RRIRTRPPRLPRPRPRPRAAPRP | 0.385
RRIRKRPPRLPRPRPRPIWCPRP | -0.0231
RRIRERPPRLPRPRPRPHAFPRP | -0.0188
RRIRKRPPRLPRPRPRPRGHPRP | 0.189
RRIRTRPPRLPRPRPRPPSPPRP | 0.236
RRIRFRPPRLPRPRPRPAVSPRP | -0.108
RRIRARPPRLPRPRPRPHRSPRP | -0.0655
RRIRFRPPRLPRPRPRPPMVPRP | -0.391
RRIRLRPPRLPRPRPRPGKAPRP | 0.0651
RRIRCRPPRLPRPRPRPPCMPRP | -0.159
RRIRGRPPRLPRPRPRPQIKPRP | 0.324
RRIRPRPPRLPRPRPRPGTRPRP | 0.134
RRIRQRPPRLPRPRPRPPRCPRP | 0.689

Sequence | shrunken log2 fold change
RRIRLRPPRLPRPRPRPWRRPRP | 0.0451
RRIRCRPPRLPRPRPRPALTPRP | 0.224
RRIRGRPPRLPRPRPRPMENPRP | 0.47
RRIRNRPPRLPRPRPRPLTCPRP | -0.149
RRIRNRPPRLPRPRPRPYWAPRP | -0.0304
RRIRHRPPRLPRPRPRPNKGPRP | -0.174
RRIRGRPPRLPRPRPRPRAWPRP | 1.31
RRIRGRPPRLPRPRPRPSDGPRP | -0.0367
RRIRNRPPRLPRPRPRPVNCPRP | -0.147
RRIRHRPPRLPRPRPRPDEEPRP | -0.0946
RRIRFRPPRLPRPRPRPILHPRP | -0.75
RRIRIRPPRLPRPRPRPVCFPRP | -0.256
RRIRMRPPRLPRPRPRPNDVPRP | -0.00114
RRIRDRPPRLPRPRPRPVLLPRP | -0.00551
RRIRERPPRLPRPRPRPQFSPRP | -0.0998
RRIRKRPPRLPRPRPRPHTMPRP | 0.205
RRIRSRPPRLPRPRPRPARYPRP | -0.0163
RRIRERPPRLPRPRPRPAAPPRP | 0.504
RRIRNRPPRLPRPRPRPLELPRP | -0.0825
RRIRGRPPRLPRPRPRPEGHPRP | 1.8
RRIRMRPPRLPRPRPRPWSEPRP | 0.0897
RRIRDRPPRLPRPRPRPMLCPRP | -0.00642

Sequence | shrunken log2 fold change
RRIRWRPPRLPRPRPRPICVPRP | -0.12
RRIRSRPPRLPRPRPRPGPCPRP | 0.0781
RRIRDRPPRLPRPRPRPGFTPRP | 0.125
RRIRARPPRLPRPRPRPIIRPRP | -0.357
RRIRYRPPRLPRPRPRPWYIPRP | -0.00804
RRIRTRPPRLPRPRPRPPLMPRP | -0.0314
RRIRYRPPRLPRPRPRPSQIPRP | -0.766
RRIRPRPPRLPRPRPRPENQPRP | 0.0738
RRIRPRPPRLPRPRPRPQELPRP | 0.126
RRIRTRPPRLPRPRPRPHGNPRP | -0.718
RRIRPRPPRLPRPRPRPLRTPRP | 0.831
RRIRCRPPRLPRPRPRPRFVPRP | 0.15
RRIRYRPPRLPRPRPRPVWNPRP | -0.136
RRIRRRPPRLPRPRPRPHPIPRP | 0.35
RRIRNRPPRLPRPRPRPEWFPRP | -0.00884
RRIRIRPPRLPRPRPRPDKKPRP | -0.0638
RRIRCRPPRLPRPRPRPHDWPRP | 0.112
RRIRERPPRLPRPRPRPSGNPRP | -0.636
RRIRGRPPRLPRPRPRPVVYPRP | 0.268
RRIRYRPPRLPRPRPRPTPRPRP | 0.886
RRIRRRPPRLPRPRPRPMIQPRP | 0.107
